Experimental data as given in US6468532 (Genentech, dated 2002).
Where a chain is given by its changes, count along the chain named.

T1: rabbit IL-8 (rabbit, UniProt P19874 23-101, limits assumed)
T1 sequence (looked up): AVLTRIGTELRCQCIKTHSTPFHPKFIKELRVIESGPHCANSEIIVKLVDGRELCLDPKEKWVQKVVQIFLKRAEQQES

T2: recombinant human IL-8, (ser-IL-8)72 (human, UniProt P10145 28-99)
T2 sequence (looked up): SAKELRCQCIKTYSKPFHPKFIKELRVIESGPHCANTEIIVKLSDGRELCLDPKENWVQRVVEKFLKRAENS

T3: rhesus IL-8 (rhesus, UniProt P67813 23-101, limits assumed)
T3 sequence (looked up): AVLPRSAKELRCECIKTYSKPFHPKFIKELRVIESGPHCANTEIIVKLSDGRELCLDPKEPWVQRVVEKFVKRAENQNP

B1: 6G4V11N35A F(ab')2 (GCN4 leucine zipper construct) (other)
light: DIQMTQSPSSLSASVGDRVTITCRSSQSLVHGIGATYLHWYQQKPGKAPKLLIYKVSNRFSGVPSRFSGSGSGTDFTLTISSLQPEDFATYYCSQSTHVPLTFGQGTKVEIKRTVAAPSVFIFPPSDEQLKSGTASVVCLLNNFYPREAKVQWKVDNALQSGNSQESVTEQDSKDSTYSLSSTLTLSKADYEKHKVYACEVTHQGLSSPVTKSFNRGEC
heavy: not shown
B2: humanized 6G425 F(ab)-9 (humanized 6G4V11 Fab) (Fab, V domains shown)
VH: EVQLVQSGGGLVQPGGSLRLSCAASGYSFSSHYMHWVRQAPGKGLEWVGYIDPSNGETTYNQKFKGRFTLSRDNSKNTAYLQMNSLRAEDTAVYYCARGDYRYNGDWFFDVWGQGTLVTVSS
VL: DIQMTQSPSSLSASVGDRVTITCRSSQSLVHGIGNTYLHWYQQKPGKAPKLLIYKVSNRFSGVPSRFSGSGSGTDFTLTISSLQPEDFATYYCSQSTHVPLTFGQGTKVEIKR
B3: 6G4V11N35A Fab' modified with 40 kD linear PEG-maleimide (Fab, V domains shown)
VH: B2 VH
VL: B2 VL with N35A
modifications: 40 kD linear methoxy-PEG-maleimide on the free cysteine in the hinge region
B4: humanized 6G425 F(ab)-8 (Fab, V domains shown)
VH: B2 VH with Q6E, R38K
VL: B2 VL
B5: 6G4V11N35A Fab (Fab, V domains shown)
VH: B2 VH
VL: B2 VL with N35A
B6: full length 6G4V11N35A IgG1 (antibody, V domains shown, not shown: a dimerising Fc or GST)
VH: B2 VH
VL: B2 VL with N35A

Legend:
Assay in all cases: cell-based or functional assay
[1] = target: human monomeric IL-8 (human)
[2] = target: T1, rabbit IL-8
[3] = target: T2, recombinant human IL-8, (ser-IL-8)72
[4] = target: T3, rhesus IL-8

Row | Binder | average IC50, IL-8 mediated neutrophil chemotaxis [1] [nM] | average IC50, IL-8 mediated neutrophil chemotaxis [2] [nM] | average IC50, human IL-8 mediated neutrophil chemotaxis [3] [nM] | IC50, IL-8 mediated neutrophil chemotaxis [4] [nM] | IC50, IL-8 mediated PMN chemotaxis [3] [nM] | further results
1 | B1 | 1 | 4 | 1.5 | – | – | –
2 | B2 | – | – | – | ~22 | – | IC50, IL-8 mediated neutrophil chemotaxis [1]: ~15 nM
3 | B3 | – | – | – | – | 3.7 | –
4 | B4 | – | – | – | 10 | – | IC50, IL-8 mediated neutrophil chemotaxis [3]: 12 nM
5 | B5 | 1 | 5 | 2.7 | – | 0.8 | –
6 | B6 | – | – | – | – | – | IC50, IL-8 mediated human neutrophil chemotaxis [2]: 4 nM; IC50, IL-8 mediated human neutrophil chemotaxis [3]: 4 nM
